This note sets out measurements from patent publication US20250215052A1, “INHIBITORS OF PICK1 AND USES THEREOF” (University of Copenhagen, priority 2018, published 2025).

Where two headings read alike, the source gives them in different places.

Experiment [1] deals with T1, fluorescently labelled recombinant rat PICK1 (DY549-SNAP-PICK1) (rat), Q9EP80.
The target of experiment [2] is T1, fluorescently labelled recombinant rat …. Description: SCMS, dissociation of PICK1 pre-bound to TacDAT C24 sheets by peptide.
Experiment [3] deals with T2, Protein Interacting with C Kinase-1 (PICK1), purified recombinant, Q9EP80. The experiment is described as follows: fluorescence polarization competition, tracer 5-FAM-TAT-C5, purified PICK1. In general terms: In fluorescence polarisation assays a small probe gives low polarisation when free and higher when bound to something large.
Experiment [4] concerns the target T2, Protein Interacting with C Kinase-1 …. The experiment is described as follows: fluorescence polarization competition, tracer 5FAM-TAT-(C5), purified PICK1.

T2 sequence (Q9EP80 whole entry): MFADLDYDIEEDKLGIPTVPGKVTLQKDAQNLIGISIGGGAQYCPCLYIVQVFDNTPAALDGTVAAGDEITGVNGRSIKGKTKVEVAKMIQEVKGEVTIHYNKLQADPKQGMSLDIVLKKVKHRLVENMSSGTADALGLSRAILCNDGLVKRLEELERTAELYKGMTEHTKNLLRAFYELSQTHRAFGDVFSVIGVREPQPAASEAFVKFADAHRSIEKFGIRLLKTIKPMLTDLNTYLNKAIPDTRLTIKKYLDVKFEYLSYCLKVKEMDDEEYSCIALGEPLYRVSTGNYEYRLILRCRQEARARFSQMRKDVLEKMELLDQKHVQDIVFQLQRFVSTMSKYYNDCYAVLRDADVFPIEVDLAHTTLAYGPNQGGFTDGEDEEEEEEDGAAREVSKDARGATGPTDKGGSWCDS
T1 sequence (Q9EP80 whole entry): as above

B1: TAT11-PEG4-(DATC5)2 (peptide)
peptide 1: HWLKV
peptide 2: YGRKKRRQRRR
modifications: not checked
By IC50 is commonly meant the concentration at which inhibition is half-maximal. By Ki is commonly meant a dissociation constant, usually derived from enzyme kinetics or from competition with a known ligand. In the case of B1, in experiment [1], the half-inhibitory concentration (IC50) came to 7 nM. For the same molecule, the IC50 in experiment [2] was 1170 nM. Besides, in experiment [3], the Fold affinity change (vs TAT-P4-(C5)2) is 1 fold and the Ki was found to be 4 nM. In experiment [4], the inhibition constant Ki was determined as 6.6 nM and the fold shift in affinity turned out to be 301 fold.

B2: TP10-P4-(C5)2 (peptide)
peptide 1: HWLKV
peptide 2: […]
modifications: not checked
Take B2: in experiment [3], the Fold affinity change (vs TAT-P4-(C5)2) was 0.5 fold and the Ki came to 7.8 nM.
